# Assay results from the supplement of paper PMC7877785.
# ± gives the uncertainty stated by the source.
# Test: self-splicing fitness, log relative to wild type (ln ratio); higher = more splicing; Tetrahymena group I intron in knt gene, E. coli kanamycin selection, DiMSum; sequences stand for … in CUCUCU…GGAGGGAAAAGUUAUCAGGCAUGCACCUGGUAGCUAGUCUUUAAACCAAUAGAUUGCAUCGGUUUAAAAGGCAAGACCGUCAAAUUGCGGGAAAGGGGUCAACAGCCGUUCAGUACCAAGUCUCAGGGGAAACUUUGAGAUGGCCUUGCAAAGGGUAUGGUAAUAAGCUGACGGACAUGGUCCUAACCACGCAGCCAAGUCCUAAGUCAACAGAUCUUCUGUUGAUAUGGAUGCAGUUCACAGACUAAAUGUCGGUCGGGGAAGAUGUAUUCUUCUCAUAAGAUAUAGUCGGACCUCUCCUUAAUGGGAGCUAGCGGAUGAAGUGAUGCAACACUGGAGCCGCUGGGAACUAAUUUGUAUGCGAAAGUAUAUUGAUUAGUUUUGGAGUACUCGUGGUCG
# Method in brief: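 Fitness was computed with DiMSum as the error-weighted combination of replicate fold changes, kanamycin versus none, each normalised to wild type. The library randomised all eight intron nucleotides of the P1ex region, with the intron placed in the knt kanamycin-resistance gene on pET-22b(+) in E. coli BL21(DE3). Six replicate transformations were grown overnight at 37°C or 30°C on LB agar with or without 25 μg/mL kanamycin, plus 100 μg/mL carbenicillin, 50 μM IPTG and 0.2% rhamnose. Pooled colonies were amplicon-sequenced on an Illumina HiSeq 2500.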
Sequence,self-splicing fitness (ln) (30 °C),self-splicing fitness (ln) (37 °C)
AUGUAGCAAUAUUACGCUGG,-3.03 ± 0.14,-1.92 ± 0.16
AUAGAGCAAUAUUACGAAAG,-3.24 ± 0.2,-2.05 ± 0.22
AAAUAGCAAUAUUACGUCAU,-2.45 ± 0.08,-1.51 ± 0.11
AGCCAGCAAUAUUACGAACU,-0.257 ± 0.11,0.407 ± 0.14
UUCGAGCAAUAUUACGCGAU,-2.39 ± 0.21,-2.11 ± 0.27
CUUCAGCAAUAUUACGGUCA,-2.2 ± 0.25,-3.2 ± 0.24
GCACAGCAAUAUUACGUCCU,-0.289 ± 0.072,0.244 ± 0.094
UUAGAGCAAUAUUACGCCCG,-1.21 ± 0.11,-0.643 ± 0.19
CUGAAGCAAUAUUACGCACU,-4.4 ± 0.39,-1.32 ± 0.18
AUAAAGCAAUAUUACGCGAA,-1.19 ± 0.088,-0.188 ± 0.1
CCCGAGCAAUAUUACGGGAC,-3.05 ± 0.18,-1.89 ± 0.19
CGCUAGCAAUAUUACGUCGC,-2.3 ± 0.33,
CAUCAGCAAUAUUACGUCCA,-1.71 ± 0.12,-2.92 ± 0.22
UAACAGCAAUAUUACGCAGU,-3.43 ± 0.19,-3.5 ± 0.27
CGACAGCAAUAUUACGUGAA,-1.93 ± 0.11,-2.02 ± 0.15
GGCUAGCAAUAUUACGCUUA,-0.872 ± 0.1,-0.117 ± 0.11
CGCCAGCAAUAUUACGCUUG,-2.95 ± 0.13,-1.88 ± 0.15
AUCCAGCAAUAUUACGGUUC,-4.5 ± 0.17,-1.95 ± 0.17
UCUCAGCAAUAUUACGUCGG,-1.51 ± 0.085,-1.22 ± 0.11
GGAUAGCAAUAUUACGAACC,-2.49 ± 0.36,-1.77 ± 0.28
UCAAAGCAAUAUUACGCUGA,-3.43 ± 0.29,-1.62 ± 0.23
CCAUAGCAAUAUUACGGCGG,-1.95 ± 0.13,-1.6 ± 0.18
CGCAAGCAAUAUUACGGUGC,-4.9 ± 0.29,-2.53 ± 0.23
GACAAGCAAUAUUACGGCUU,-0.995 ± 0.068,-0.505 ± 0.1

Sequence,self-splicing fitness (ln) (30 °C),self-splicing fitness (ln) (37 °C)
UCCUAGCAAUAUUACGCUCG,-3.13 ± 0.21,
UUCAAGCAAUAUUACGGGGA,-1.49 ± 0.1,-0.885 ± 0.1
GGCGAGCAAUAUUACGACCU,-0.951 ± 0.19,-0.976 ± 0.39
UGGCAGCAAUAUUACGAAUA,-1.36 ± 0.12,-0.17 ± 0.13
UUAUAGCAAUAUUACGAAAU,-3.75 ± 0.34,-1.34 ± 0.3
UCCUAGCAAUAUUACGCAUC,-2.3 ± 0.21,-1.27 ± 0.22
UUAAAGCAAUAUUACGUUCA,0.284 ± 0.087,0.233 ± 0.12
UCAGAGCAAUAUUACGAUAU,,-2.32 ± 0.33
CUCGAGCAAUAUUACGCGAG,-3.97 ± 0.42,-2.98 ± 0.47
CCUCAGCAAUAUUACGGUCG,-0.693 ± 0.069,-0.505 ± 0.089
CUGCAGCAAUAUUACGCGAC,-2.19 ± 0.14,-0.91 ± 0.12
UUACAGCAAUAUUACGUAUC,-3.33 ± 0.19,-3.28 ± 0.24
AUCAAGCAAUAUUACGUUGG,-2.7 ± 0.13,-2.25 ± 0.16
GGCCAGCAAUAUUACGUUAA,-3.51 ± 0.29,-2.62 ± 0.19
UCUAAGCAAUAUUACGGUGU,-1.75 ± 0.083,-1.34 ± 0.093
GGUUAGCAAUAUUACGGGAU,-3.13 ± 0.26,-1.4 ± 0.24
CCGGAGCAAUAUUACGGUUG,-1.16 ± 0.14,-1.25 ± 0.16
CGAAAGCAAUAUUACGCGUU,-4 ± 0.18,-2.85 ± 0.2
UAAAAGCAAUAUUACGUCAG,-1.56 ± 0.074,-0.962 ± 0.097
CUCUAGCAAUAUUACGGCGG,-3.5 ± 0.15,-3.12 ± 0.23
CUGAAGCAAUAUUACGUAAU,-2.87 ± 0.24,-2.17 ± 0.5
UUAAAGCAAUAUUACGCUGU,-1.31 ± 0.16,-1.68 ± 0.2
AAAGAGCAAUAUUACGCUGA,-2.1 ± 0.14,-2.6 ± 0.26
CUUAAGCAAUAUUACGCGCG,-1.54 ± 0.12,-0.513 ± 0.17
